Results: the DeepSol protein solubility set

Assay: soluble on expression in E. coli; label from the status in PepcDB or PDB records

Soluble on expression in E. coli, not soluble:
MGSDKIHHHHHHMQVPSGAADLPEQMGTKAKFWFDDSRRLFKEGRPGTGENWAEVIAAELAALLGLPHATYSLAEYEGRRGVVTESFVPSGARLILGNELIGFAARETVSRHTRGQAHTIGRLSSLLNRPQVALPSGWVSPTSFFNAADVMSGYLLLDALIANQDRHEENWGLINSHGAIYLAPTFDHASSLGRNETDQRRIQKLDANHPDHGVLGYARRAKVPIYDGMGPLQSGEAFFAFARSCPDKGAYWLNRLHELDPSSFLALLNRIPVGWITDPARRFAAELLKVNRDRLLDEK, MGSDKIHHHHHHMQVYPLIMNKLVMPAASRFTDLKIWDEYKVMLKSERLSLEQLRQMQLTKLQTIVRHAYENVPFYRQRFDSIGLHPEDIKSIEDIERIPPTTKDDIMANFPEGITAGGMDRNRWKYVASSGTTRKIMGIHDFRKSTLNWAAGIRAHRLAGNHRMGMKWMEIPPHMCTTICGINDGPKGEKLSTKKLVSLVKEGDFGGAGRHVYEGLYSMRHDLYKRVTLPSFGPEGTNIPESDIVSYLDSIRSYQPHLLEGLPLYLYTFAKYILDKGISAPRVGVIKPFGGSLTPYMKQIIATAFGCEVYDTYGCSELGFMAADCPKHEGVHLFMDLYHVEVRHGDRAAAPGELGKFYVTDLENRAMPWIRYEIGDVGRYFEDDHGCGRRGIRLEVEGRVQDTLVNSQGRFFTSDEVFDFFHRREEIDNFQLTEKSAGRYELLCVPVEGKEVDREGIARDFREFFDTEANVKAYAVKTIKAEDGGKFRFIKAKGHDRL, MGSDKIHHHHHHMRAKAKLYPKEAARLIREKPGVREAVTGATLHFERNRLKAYAEVPIEAWRERAKAVKDHVLTHLDHYLELAERRLRENGVQVHWAETPEDAHRVLREVVARHGVKRAVKAKSMLTEELGVNPLLEALGVEVYETDLGEYLIQLLGEPPSHIVGPAIHLSLEEIQRLFHQRFGTPLDAPPEALAQVARRVLREAFLTAELGISGANFLVAETGTLALMENEGNIRLSTSLPRVHVAFVGIEKLLPRFADLALFLPLAARAATGQRLSTFVSLIQGPAREGEEGPLEVHVVLVDNGRTALLHDPEAWETLRCLRCGACLNACPVYRQTGGHPYGYVYSGPIGAVLDPGLLTLEEAYPLPYASTLCGACLEACPVKIPIPKLLLAWRHRAVEEGLTPSWEHGAMRAFRKVMESPALYRLFSKGLRGLPLPQDLLPLLKAWTEGRGPLKPSPKPFHELWKEVERGG, MGSDKIHHHHHHMRALDIAATGMSAQQLRVDVISNNIANMSTTGYSPRRADFADLHYQQMVRAGAINASDGTVVPAGVQIGLGVRPAAVTVTWEQGTLGATGGQLDVAIEGRGYLEVTLPSGDNAYTRDGALQRTGDGLIVTNDGFEVNPGITIPDDAQEITINANGEVFASFRGEIQPQLLGQLNMVRFTNDNGLEAIGSNLFLETGASGAPLAGDPGEDGMGTFRQGYVEQSSVDAVREITDLIEAQRGYELNAKVLTAADQILGATTQVR, MGSDKIHHHHHHMRAVRLHAKWDPRPEFKLGPKDIEGKLTWLGSKVWRYPEVRVEEVPEPRIEKPTEIIIKVKACGICGSDVHMAQTDEEGYILYPGLTGFPVTLGHEFSGVVVEAGPEAINRRTNKRFEIGEPVCAEEMLWCGHCRPCAEGFPNHCENLNELGFNVDGAFAEYVKVDAKYAWSLRELEGVYEGDRLFLAGSLVEPTSVAYNAVIVRGGGIRPGDNVVILGGGPIGLAAVAILKHAGASKVILSEPSEVRRNLAKELGADHVIDPTKENFVEAVLDYTNGLGAKLFLEATGVPQLVWPQIEEVIWRARGINATVAIVARADAKIPLTGEVFQVRRAQIVGSQGHSGHGTFPRVISLMASGMDMTKIISKTVSMEEIPEYIKRLQTDKSLVKVTMLNE, MGSDKIHHHHHHMRCFIGIDLGSTTTKAVVMDENLQILGRGITNSRSNYDTAAAVSKQEALIDTRLTLFRRALGGVPEVAGKVDDILSDLERNFRHVQFLEQLEDLQQTCIANIKGPRFAGREKTVIEALEGTFSRLRDSSAKQYAPGVKRKSDFFRDLAGAEFMSHGEAVCKEAGLGFDLILNVYDKSIIEVENRPPSGDMEGKFVRALEKGTMTGSSILAPVQSALAIPLEETYVVGTGYGRVRLPFPKEHIRSEILCHGLGAHMMYPETRTVLDIGGQDTKGIQVDPVGIVENFQMNDRCAAGCGRYLGYIADEMNMGLHELGPLAMKSNKQVRINSTCTVFAGAELRDRLALGEKREDILAGLHRAIILRAMSILSRAGGVKDQFTFTGGVAKNEAAVRELRKLIKENYGDVTINIDPDSIYTGALGGATFAVRAVVN, MGSDKIHHHHHHMREIMSIITLPRKIYQQRDIIDNIRETLQLKEPILLVSDRNIMKLYGQRIKNALDGSDYRVIEDVRPEPEVSDIENTYRSLSGFQPKTIIAFGGGSVIDFAKSIDVKISYPDRSLEEVNPFEPLNLKADLVAIPTTSGTGSDVSFGIVITDQGRKLALGNFDLVPYVSVLDSSLVPSDPSIIRPTGVDALVHSFEALTANTSSIFTDALAEKAIETIFGILIDPMKGEEDARENMHLAATMAGISFTNSGTALAHALGHSFGSTHHVVHGTCVGLFLPYVIEFNSSDENASEKYARIARRLGYKDAISALRDLYRRIGQPLTVAEIGIPKDAYMKSLDSMVEKALADSELAFNPVIAGDEDVRSIYIKAYGD, MGSDKIHHHHHHMREQLDQVGSGGVTGATGLLGNNLVRELVARGYTVKGLVRSKAKGEQQFNNLPGVELVVGDMAEVDAFAASLQGCDTVFHTASFFRDNYKGGSHWKELEQINVSGTRRLLEQAYGAGIRRFIHTSSIAVLNGAPGTSIEENCLRADADADDYYRSKILADRVVLSFLESHPQMHACMVLPGWMWGPGDVGPTSSGQLVNDVVQGKLPGLIPGSFSIVDARDVALAHIAAARHGRRGERYLAAGRHMTMRELMPVLGRMAGVKTPARQIPLPFLYTLAAVQEIYARLTGRPILLSMATLRLLVREQDRTRFDHRKSEQELGLSFRALELTIADTVAWYRDHGWFEKGSRL, MGSDKIHHHHHHMREVHVNDIKEAVKEAIIEANCVLPREVRVAFQEALKREESPIGREVLTQILENAEIAQYYYMPYCQDTGVDVIFVFLGQDVHVVGGSLEDAINQGVREATEEGYLRASMVWDPVFERKNTKDNTPAIIHYEVVPGDRVKIVVAPKGAGSENTSRLAMLKPADGWEGVKKFILETVKFAGPNACPPFTVGVGIGGNFEYCAYLAKKALLRPVGKRHENPLIAKVEEELLEEINKIGWGPMGFGGTVTAVDVKVEMYPCHIASLPVAVNIQCHANRHAERVV, MGSDKIHHHHHHMRGSSNIPLDWDKLRIFHAAAEAGSFTHAADKLHLSQSAISRQVSALEQDVGVKLFHRHARGLILTEQGELLYRTAHDVLLKLETVKMQLTETTEKPSGKLRVTTTVGLGQGWLTDKVQEFLQLYPDMSIQLILDNEELDVNMRHADCAIRLRQPQQSDLIQRKLFTVHMHVYAAPSYINRYGEPQTIEDLDNHRIISFGEPAPNYLLDVNWLEVAGRSSDNRRIPHLQINSQTSIKRACLLGIGVACMPDYIVGRDPGLIQLPINAEVPSFDTYFCYPDEMKNAAKLKVFRDFIVSKARNWNF, MGSDKIHHHHHHMRIIEASAVHAAVRQMILAANRVLGDDVYAALKSSMESETSASGREVLRQLLENADLAASGGLALCQDTGAAVFFVEMGEDVRLGGGSLQHVLNSAMAQAYEEGCLRKSMCHPLTRCNTGDNRPAIVHTELVEGDRLTIRYMAKGGGSENMSRCTMLTPAQGWQGIKEFVVRRMAEAGPNPCPPTIVGVGIGGTFDLAPALAKRALFRRLDDVHPDAEVAAMETELLDALNALGIGPMGLGGRTTCLAVKIALHPCHIASLPVAVNVQCHSARHREVIL, MGSDKIHHHHHHMRILQIGKFYPIRGGIEKVMYDITMGLSQRQVYCDMLCASAEKQKPENLLLNDYARILCVSTWKKVAATMLSPAMIFRLRKINKEYDIIHIHHPDPMACLALFLSGYKGPVVLHWHSDILKQKMLLKLYSPLQNWLLRRAKVIVGTTPVYVQESPFLENIQRKVISVPIGIDEMKPVPGRVAQIKERYAGKKIIFSLGRLVEYKGYEYLIKASQKLNDDYIILIGGKGPLQEYLQSLIDELGVRKKVKLLGFIDDKDLPDYFGACDLFCLSSIWKTEAFGIVQIEAMSCGKPVIAMNIPESGVSWVNINRFSGINVKPEDADALAEAITAVLTDECLYEELARGARRRYETMFTKELMTELCLNLYSGVLDSSETDYPANKKE
